According to the supplement of paper PMC11246515:
± gives the standard deviation of the averaged measurements.

Test: total protein half-life in vivo (active degradation + dilution); higher = more stable protein
[1] = wild type E. coli NCM3722, growth: C-lim chemostat, doubling time 3 h
[2] = wild type E. coli NCM3722, growth: C-lim chemostat, doubling time 6 h
[3] = wild type E. coli NCM3722, growth: C-lim chemostat, doubling time 12 h
[4] = E. coli NCM3722 delta-clpP delta-lon delta-hslV, growth: N-lim chemostat, doubling time 6 h
[5] = E. coli NCM3722 delta-clpP, growth: N-lim chemostat, doubling time 6 h
[6] = E. coli NCM3722 delta-hslV, growth: N-lim chemostat, doubling time 6 h
[7] = E. coli NCM3722 delta-lon, growth: N-lim chemostat, doubling time 6 h
[8] = E. coli NCM3722 delta-smpB, growth: N-lim chemostat, doubling time 6 h
[9] = wild type E. coli NCM3722, growth: N-lim chemostat, doubling time 6 h
[10] = wild type E. coli NCM3722, growth: N-lim chemostat, doubling time 12 h
[11] = wild type E. coli NCM3722, growth: P-lim chemostat, doubling time 6 h
[12] = wild type E. coli NCM3722, growth: P-lim chemostat, doubling time 12 h

Row | Sequence | total protein half-life in vivo [1] [h] | total protein half-life in vivo [2] [h] | total protein half-life in vivo [3] [h] | total protein half-life in vivo [4] [h] | total protein half-life in vivo [5] [h] | total protein half-life in vivo [6] [h] | total protein half-life in vivo [7] [h] | total protein half-life in vivo [8] [h] | total protein half-life in vivo [9] [h] | total protein half-life in vivo [10] [h] | total protein half-life in vivo [11] [h] | total protein half-life in vivo [12] [h]
1 | MKKLALILFMGTLVSFYADAGRKPCSGSKGGISHCTAGGKFVCNDGSISASKKTCTN [P0ACW4] | 0.862 | 4.49 | 4.67 | – | – | – | – | – | – | – | – | –
2 | MKKLITANDIREAHARGEQAMSVVLRASIITPEAREVADLLGFTITECDESIPVTASVPASVPADKTESQRIRETIIAQLPEGQFTESLVAQLMEKVMKEKQSLEQGAMQPSFKSVTGKGGIKVIDGSSVKFGRFDGAEPHCVGLTDLVTGDDGSSMAAGFMQWENAFFPWTLNYDEIDMVLEGELHVRHEGQTMIAKAGDVMFIPKGSSIEFGTTSSVKFLYVAWPANWQSL | 2.12 ± 0.14 | 4.18 ± 0.51 | 5.42 ± 1.1 | 5.08 ± 0.37 | 1.62 | 1.44 ± 0.19 | 2.42 ± 0.052 | 1.55 ± 0.36 | 1.84 | 2.19 | 2.44 | 3.93
3 | MKKLKLHGFNNLTKSLSFCIYDICYAKTAEERDGYIAYIDELYNANRLTEILSETCSIIGANILNIARQDYEPQGASVTILVSEEPVDPKLIDKTEHPGPLPETVVAHLDKSHICVHTYPESHPEGGLCTFRADIEVSTCGVISPLKALNYLIHQLESDIVTIDYRVRGFTRDINGMKHFIDHEINSIQNFMSDDMKALYDMVDVNVYQENIFHTKMLLKEFDLKHYMFHTKPEDLTDSERQEITAALWKEMREIYYGRNMPAV [P0A7F6] | 2.8 ± 0.15 | 4.99 | 9.17 ± 0.37 | – | 4.12 ± 0.42 | 3.29 ± 0.22 | 3.67 ± 0.29 | 3.3 ± 0.2 | 2.928 ± 0.015 | 4.17 ± 0.036 | 4.78 ± 0.48 | 7.61 ± 1.4
4 | MKKLLRLFFPLSLRVRFLLATAAVVLVLSLAYGMVALIGYSVSFDKTTFRLLRGESNLFYTLAKWENNKLHVELPENIDKQSPTMTLIYDENGQLLWAQRDVPWLMKMIQPDWLKSNGFHEIEADVNDTSLLLSGDHSIQQQLQEVREDDDDAEMTHSVAVNVYPATSRMPKLTIVVVDTIPVELKSSYMVWSWFIYVLSANLLLVIPLLWVAAWWSLRPIEALAKEVRELEEHNRELLNPATTRELTSLVRNLNRLLKSERERYDKYRTTLTDLTHSLKTPLAVLQSTLRSLRSEKMSVSDAEPVMLEQISRISQQIGYYLHRASMRGGTLLSRELHPVAPLLDNLTSALNKVYQRKGVNISLDISPEISFVGEQNDFVEVMGNVLDNACKYCLEFVEISARQTDEHLYIVVEDDGPGIPLSKREVIFDRGQRVDTLRPGQGVGLAVAREITEQYEGKIVAGESMLGGARMEVIFGRQHSAPKDE | 3.26 ± 0.4 | 5.936 ± 0.044 | 10.2 ± 1.2 | 7.01 ± 1.1 | 6.22 ± 0.32 | 5.85 ± 0.59 | 6.87 ± 1.1 | 6.02 ± 0.93 | 6.046 ± 0.045 | 12.5 ± 0.13 | 6.36 ± 0.37 | 13.5 ± 1.9
5 | MKKMLLATALALLITGCAQQTFTVQNKQTAVAPKETITHHFFVSGIGQKKTVDAAKICGGAENVVKTETQQTFVNGLLGFITLGIYTPLEARVYCSK | 3.42 ± 0.22 | – | 9.62 ± 2.6 | 6.1 ± 0.25 | 6.87 | 6.21 | – | 6.05 ± 0.44 | 6.71 ± 0.74 | 12.4 ± 0.78 | 6.65 ± 0.69 | 14.7 ± 0.54
6 | MKKMMIATLAAASVLLAVANQAXAGATLDAVQKKGFVQCGISDGLPGFSYADADGKFSGIDVDICRGVAAAVFGDDTKVKYTPLTAKERFTALQSGEVDLLSRNTTWTSSRDAGMGMAFTGVTYYDGIGFLTHDKAGLKSAKELDGATVCIQAGTDTELNVADYFKANNMKYTPVTFDRSDESAKALESGRCDTLASDQSQLYALRIKLSNPAEWIVLPEVISKEPLGPVVRRGDDEWFSIVRWTLFAMLNAEEMGINSQNVDEKAANPATPDMAHLLGKEGDYGKDLKLDNKWAYNIIKQVGNYSEIFERNVGSESPLKIKRGQNNLWNNGGIQYAPPVR | – | – | – | 4.74 ± 0.45 | – | – | – | – | – | – | – | –
7 | MKKNQFLKESDVTAESVFFMKRRQVLKALGISATALSLPHAAHADLLSWFKGNDRPPAPAGKALEFSKPAAWQNNLPLTPADKVSGYNNFYEFGLDKADPAANAGSLKTDPWTLKISGEVAKPLTLDHDDLTRRFPLEERIYRMRCVEAWSMVVPWIGFPLHKLLALAEPTSNAKYVAFETIYAPEQMPGQQDRFIGGGLKYPYVEGLRLDEAMHPLTLMTVGVYGKALPPQNGAPVRLIVPWKYGFKGIKSIVSIKLTRERPPTTWNLAAPDEYGFYANVNPYVDHPRWSQATERFIGSGGILDVQRQPTLLFNGYAAQVASLYRGLDLRENF | 2.98 ± 0.034 | 5.58 ± 0.24 | 8.4 ± 0.38 | 4.835 ± 0.0049 | 5.46 ± 0.24 | 5.75 ± 0.17 | 5.98 ± 0.35 | 5.33 ± 0.3 | 5.79 ± 0.18 | 11.9 ± 0.43 | 5.91 ± 0.19 | 11.9 ± 0.57
8 | MKKNRAFLKWAGGKYPLLDDIKRHLPKGECLVEPFVGAGSVFLNTDFSRYILADINSDLISLYNIVKMRTDEYVQAARELFVPETNCAEVYYQFREEFNKSQDPFRRAVLFLYLNRYGYNGLCRYNLRGEFNVPFGRYKKPYFPEAELYHFAEKAQNAFFYCESYADSMARADDASVVYCDPPYAPLSATANFTAYHTNSFTLEQQAHLAEIAEGLVERHIPVLISNHDTMLTREWYQRAKLHVVKVRRSISSNGGTRKKVDELLALYKPGVVSPAKK [P0AEE8] | 2.94 ± 0.05 | 5.65 ± 0.72 | 10.2 ± 0.14 | 5.89 ± 0.51 | 4.15 ± 0.098 | 5.84 ± 0.34 | 4.29 ± 2.2 | 4.51 ± 0.34 | 4.65 ± 0.55 | 10.1 ± 0.92 | 5.39 ± 0.27 | 10.9 ± 0.14
9 | MKKSTLALVVMGIVASASVQAAEIYNKDGNKLDVYGKVKAMHYMSDNASKDGDQSYIRFGFKGETQINDQLTGYGRWEAEFAGNKAESDTAQQKTRLAFAGLKYKDLGSFDYGRNLGALYDVEAWTDMFPEFGGDSSAQTDNFMTKRASGLATYRNTDFFGVIDGLNLTLQYQGKNENRDVKKQNGDGFGTSLTYDFGGSDFAISGAYTNSDRTNEQNLQSRGTGKRAEAWATGLKYDANNIYLATFYSETRKMTPITGGFANKTQNFEAVAQYQFDFGLRPSLGYVLSKGKDIEGIGDEDLVNYIDVGATYYFNKNMSAFVDYKINQLDSDNKLNINNDDIVAVGMTYQF | – | 5.98 ± 0.22 | 12.6 ± 1.1 | 6.3 | > 8 | 6.65 ± 0.12 | – | 6.18 ± 0.13 | – | 11 ± 2.1 | 6.41 ± 0.31 | 13.9 ± 1.1
